These results are taken from the supplement of paper PMC10567573.

This series in a line: protein stability index of a GFP-peptide fusion (GPS, HEK-293T) (PSI 1-6); higher = more stable.
[1] abbreviates: treatment: DMSO, c terminus: a fixed tail appended.
[2] abbreviates: treatment: MLN4924 1 uM, 8 h, c terminus: a fixed tail appended.

± gives the standard deviation.
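Also: 24-mer peptide tiles fused after GFP, lentivirally expressed, FACS-sorted into six equal bins by GFP/DsRed ratio, decoded by Illumina sequencing, PSI is the read-weighted mean bin number.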

Turning to SYWEDLRKQARQLENELDLKLVSF [GOSR1], the protein stability index runs as follows: under setting [1], 2.37 ± 0.24; under setting [2], 2.57 ± 0.2.
The sequence TAPQQKPIGKISKNKKKKLKKKQK [SRPK2] showed a protein stability index under setting [1] of 4.92 ± 0.32 and a protein stability index under setting [2] of 4.84 ± 0.67.
Turning to TAYWALAGSIGGLFFAVGIAQYAL [SLC22A15], the protein stability index runs as follows: under setting [1], 3.06 ± 0.15; under setting [2], 2.89 ± 0.18.
Regarding TCQRVNGIKVQNGGIVTDTPASNH [SLC19A2], the protein stability index under setting [1] turned out to be 4.08 ± 0.34 and the protein stability index under setting [2] amounted to 4.22 ± 0.17.
In the case of TDLVQFLLFKYQMKEPITKAEILE [MAGEA10], the protein stability index under setting [1] stood at 2.48 ± 0.43 and the protein stability index under setting [2] worked out at 2.2 ± 0.23.
Consider TEGNPRWEQTHLTYRIENYTPDLP [MMP1], for which the protein stability index was determined as 3.37 ± 0.099 under setting [1] and 3.51 ± 0.35 under setting [2].
As to TGEKPYQCNICGKCFSCNSNLHRH [ZNF263], the protein stability index is, setting by setting: under setting [1], 4.03 ± 0.2; under setting [2], 4.52 ± 0.26.
For the sequence TGFIFQKVGKLAATAVGGGFFLLQ [FUNDC2], the protein stability index runs as follows: under setting [1], 2.36 ± 0.21; under setting [2], 2.09 ± 0.51.
Turning to TGMWWRHLVAGGGAGAVSRTCTAP [SLC25A25], the protein stability index amounted to 2.32 ± 0.25 under setting [1] and 2.48 ± 0.42 under setting [2].
For TILDIFRFALRFIRPDPRSRVTDP [FAF2], in that order: 2.75 ± 0.48 and 2.75 ± 0.099.
For TILLDGRRVKLQLWDTSGQGRFCT [RAB40B], in that order: 2.28 ± 0.22 and 2.14 ± 0.13.
As for TIQVHRRYWRSLRVMKVEDREGPS [HDAC6], the protein stability index under setting [1] is 2.31 ± 0.21 and the protein stability index under setting [2] came to 3.14 ± 0.34.
For TISFLGCAIQMFSFLFLGCSHSFL [OR10K2], the protein stability index reads like this: under setting [1], 3.14 ± 0.41; under setting [2], 3.6 ± 0.52.
For TLALQGTQGQEKMMMMGPKEEEQS [ZNF232], the protein stability index is, setting by setting: under setting [1], 5.29 ± 0.31; under setting [2], 5.43 ± 0.14.
TLDQTTSEEAPGGTELIQTPLASS [HDAC6]: the protein stability index reads like this: under setting [1], 5.52 ± 0.22; under setting [2], 5.49 ± 0.26.
Consider TLQELLARDTVQVELIPEKKGLFL [SNX8], for which the protein stability index worked out at 2.47 ± 0.62 under setting [1] and 2.41 ± 0.43 under setting [2].
Consider TMLAGHYPFQDSEPVLLFGKIRRG [TRIB3], for which the protein stability index is, setting by setting: under setting [1], 2.56 ± 0.16; under setting [2], 2.77 ± 0.25.
For TNVVTGHRQSFGTNSDVLAQQFAL [DCAF4], in that order: 3.35 ± 0.1 and 3.43 ± 0.33.
For TPATPATLSASSSAGGSRTPAMSS [TFE3], in that order: 4.99 ± 0.23 and 4.95 ± 0.3.
For TQPPDESCSQNLLITQQIIPVLYC [P2RY14], the protein stability index runs as follows: under setting [1], 2.28 ± 0.25; under setting [2], 2.23 ± 0.22.
As to TRIHILPSMNPDGYEVAAAQGPNK [CPN1], the protein stability index was found to be 4.13 ± 0.25 under setting [1] and 4.06 ± 0.27 under setting [2].
For TRSKSDPVLHPSEERAAPVLSCEA [FAM189A2], in that order: 5.49 ± 0.25 and 5.61 ± 0.15.
As to TSQKIAARAFAQRYLADLLPSVFG [RSPH3], the protein stability index came to 2.12 ± 0.56 under setting [1] and 2.09 ± 0.18 under setting [2].
TSTGFDRHTSPVFSPANPESSMED [BCL2L13]: the protein stability index is, setting by setting: under setting [1], 5.39 ± 0.28; under setting [2], 5.16 ± 0.072.
Sequence TSVDHDRAPVVGVRVNVLLSRYLI [DLC1] showed a protein stability index under setting [2] of 3.12 ± 1.8.
Take TTDDTTAMASASSSATGSFSYPE [MAGEA10]: the protein stability index was found to be 5.28 ± 0.14 (treatment: DMSO, c terminus: native) and 5.4 ± 0.066 (treatment: MLN4924 1 uM, 8 h, c terminus: native).
In the case of TTFQDVYFVSESFEDAKEKMREFT [TPH1], the protein stability index by setting is: under setting [1], 3.61 ± 0.2; under setting [2], 3.58 ± 0.29.
For TTRHGEVGSALHRESFTSRQKTSG [C10orf62], in that order: 4.75 ± 0.38 and 4.78 ± 0.083.
In the case of TVAASDPDTGDNARLTYSIVGNQV [PCDHGC5], the protein stability index is, setting by setting: under setting [1], 4.36 ± 0.26; under setting [2], 4.31 ± 0.18.
Regarding TVDCEPSDLFRLQEYNIPGVIQSV [CDS2], the protein stability index reads like this: under setting [1], 3.01 ± 0.29; under setting [2], 3.16 ± 0.25.
For TVNTHYFSIDEELVYENFYADFGP [CDC14A], in that order: 2.37 ± 0.28 and 2.67 ± 0.4.
For TYPFLAMIMLKDRRMTVVGRLEGL [FAF2], the protein stability index came out at 2.66 ± 0.76 under setting [1] and 2.57 ± 0.46 under setting [2].
As to VAAGVLCELAQDKEAAEAIEAEGA [CTNNB1], the protein stability index under setting [1] worked out at 5.31 ± 0.12 and the protein stability index under setting [2] was determined as 5.44 ± 0.12.
On to VAEQVGIDKGDIPDLTQAPSSLME [SNAP91], for which the protein stability index runs as follows: under setting [1], 4.97 ± 0.38; under setting [2], 5.03 ± 0.23.
As to VCEHLNLLEKDYFGLTYRDAENQK [EPB41L3], the protein stability index turned out to be 4.91 ± 0.31 under setting [1] and 4.69 ± 0.23 under setting [2].
As to VCEVQVHGGSLLGKKYNWSCDDLM [GFOD1], the protein stability index reads like this: under setting [1], 2.58 ± 0.16; under setting [2], 2.35 ± 0.32.
For the sequence VDGRLTYPTCGIGYPVSSAFAFQN [SASS6], the protein stability index came to 2.37 ± 0.23 under setting [1] and 2.38 ± 0.37 under setting [2].
As for VDLSRILNEMRDQYEKMAEKNRKD [KRT17], the protein stability index is, setting by setting: under setting [1], 3.52 ± 0.24; under setting [2], 3.76 ± 0.36.
Turning to VEGEQQAWFGFAGTPGYLSPEVLR [CAMK2A], the protein stability index runs as follows: under setting [1], 3.48 ± 0.21; under setting [2], 3.49 ± 0.4.
On to VEGRHLYVLEFSDHPGIHEPLEPE [CPN1], for which the protein stability index turned out to be 3.04 ± 0.23 under setting [1] and 3.28 ± 0.33 under setting [2].
On to VERAAAAAAAAAGGDAGHAPFPPP [C6orf223], for which the protein stability index runs as follows: under setting [1], 5.08 ± 0.65; under setting [2], 5.22 ± 0.4.
For VFKCSVSRETECSRVGKQSFIITL [CARM1], in that order: 2.65 ± 1.1 and 2.61 ± 0.67.
As to VGGKIVGSLCAIAGVLTIALPVPV [KCNA4], the protein stability index is, setting by setting: under setting [1], 3.78 ± 0.78; under setting [2], 2.76 ± 0.46.
As to VGRGEVVTVRVPTHEEGSYLFWEF [ACBD3], the protein stability index by setting is: under setting [1], 2.64 ± 0.44; under setting [2], 2.34 ± 0.26.
For VGRLYAVYDQAVSIFYDLPQGSGF [SMAD6], in that order: 2.54 ± 0.47 and 2.39 ± 0.65.
Consider VGSVALTALVTVSSEEFEDKWFRK [C8orf76], for which the protein stability index under setting [1] is 2.26 ± 0.19 and the protein stability index under setting [2] was 2.35 ± 0.21.
Regarding VIAKWDYTAQQDQELDIKKNERLW [NCK2], the protein stability index is, setting by setting: under setting [1], 3.28 ± 0.093; under setting [2], 3.4 ± 0.32.
For the sequence VIASGSSVGHNNLIPLANTGIVNH [CARM1], the protein stability index by setting is: under setting [1], 3.11 ± 0.099; under setting [2], 3.19 ± 0.23.
Consider VIEEAKTAFLLNIQLFEELQELLT [HMOX1], for which the protein stability index is 2.08 ± 0.32 under setting [1] and 2.38 ± 0.2 under setting [2].
In the case of VIVWDGDTTRQVQRISCFQSTVKC [WDR41], the protein stability index is 2.31 ± 0.31 under setting [1] and 2.01 ± 0.11 under setting [2].
With VKSRGKRLALEKVPKVGQRFNRIG [PI4K2A], the protein stability index is, setting by setting: under setting [1], 3.23 ± 0.49; under setting [2], 3.46 ± 0.21.
VLMAVSVHSERKLLPLVTLCDGNP [SCNN1D] registered a protein stability index under setting [1] of 2.4 ± 0.38 and a protein stability index under setting [2] of 2.32 ± 0.47.
Consider VMSEGLGMRYAFIGPLETMHLNAE [CRYL1], for which the protein stability index amounted to 2.05 ± 0.23 under setting [1] and 2.05 ± 0.4 under setting [2].
The sequence VNGDGSRENGNNSSDKVRGIETLE [PHTF1] yielded a protein stability index under setting [1] of 5.24 ± 0.32 and a protein stability index under setting [2] of 5.22 ± 0.28.
Take VNIEWHRFRFGQDQLLLATGLNNG [WSB1]: the protein stability index was 2.76 ± 0.41 under setting [1] and 2.58 ± 0.45 under setting [2].
In the case of VPRAGPLTVNTEAQQLLREFEEAT [FOXJ1], the protein stability index was determined as 4.96 ± 0.19 under setting [1] and 4.9 ± 0.26 under setting [2].
With VPRPGTPQSPPSCRAPPPEARGIR [FCHO1], the protein stability index is, setting by setting: under setting [1], 4.85 ± 0.42; under setting [2], 4.85 ± 0.14.
As to VPVHSFASLNIKTTVPEVEPPQDS [PRPH], the protein stability index was 4.97 ± 0.2 under setting [1] and 4.99 ± 0.073 under setting [2].
With VPYHIARIPYTKSQTEAHYSCQSK [P2RY14], the protein stability index reads like this: under setting [1], 3.47 ± 0.17; under setting [2], 3.53 ± 0.36.
With VQDEFLDTPCTNRGLPLLKTDFGS [DLC1], the protein stability index under setting [1] came out at 3.85 ± 0.43 and the protein stability index under setting [2] stood at 3.91 ± 0.41.
In the case of VQDKTPLYSQLLQAYKWSNKLQYH [MED27], the protein stability index stood at 2.18 ± 0.27 under setting [1] and 2.19 ± 0.25 under setting [2].
Regarding VQEAVLDKWVNDPHRMDRRLLALI [GOLPH3], the protein stability index by setting is: under setting [1], 2.29 ± 0.18; under setting [2], 2.52 ± 0.17.
Take VQGLEGIKMAMVACGDAFTVAIGA [NEK8]: the protein stability index was determined as 2.79 ± 0.71 under setting [1] and 2.95 ± 0.46 under setting [2].
Turning to VQHERIHTGDKPYKCAECGKSFCH [ZNF8], the protein stability index by setting is: under setting [1], 4.54 ± 0.33; under setting [2], 4.68 ± 0.16.
For VQKRARSGPQPRLPPCLLPLSPPT [TRIB3], in that order: 3.35 ± 0.2 and 3.46 ± 0.23.
In the case of VQRSPWLMMRMGILGRGLQEYQLP [TCAP], the protein stability index is, setting by setting: under setting [1], 2.3 ± 0.17; under setting [2], 2.21 ± 0.48.
VRCGLLGSLGPVPVLRFDALWQVL [TRIM14]: the protein stability index under setting [1] is 2.29 ± 0.39 and the protein stability index under setting [2] came to 2.29 ± 0.49.
Turning to VRERILGADNIDVSHPIIYRGAVY [FEM1B], the protein stability index worked out at 2.13 ± 0.29 under setting [1] and 2.57 ± 0.32 under setting [2].
In turn, VRFLEQQNAALRGELSQARGQEPA [PRPH] showed a protein stability index under setting [1] of 4.57 ± 0.27 and a protein stability index under setting [2] of 4.41 ± 0.18.
Sequence VSPGVLVLLAVLPVLLLQITVGLV [MOG] returned a protein stability index under setting [1] of 2.92 ± 0.39 and a protein stability index under setting [2] of 2.96 ± 0.51.
In the case of VSPRRIFANGHTYHINSISVNSDC [PPP2R2C], the protein stability index is, setting by setting: under setting [1], 2.67 ± 0.27; under setting [2], 2.87 ± 0.19.
In turn, VSVFIGVLIDLWKITKVMDVRLDR [CLPTM1] registered a protein stability index under setting [1] of 3.19 ± 0.1 and a protein stability index under setting [2] of 2.97 ± 0.35.
